According to article PMC10247859, “Replisome-cohesin interactions provided by the Tof1-Csm3 and Mrc1 cohesion establishment factors” (Chromosoma, 2023):

Biological target: T1, cohesin tetramer complex (Smc1-Smc3-Scc1-Scc3) (S. cerevisiae (budding yeast), UniProt P32908 1-1225; P47037 1-1230; Q12158 1-566; P40541 1-1150)
T1 construct: Smc1, cohesin subunit, budding yeast; Smc3, cohesin subunit, budding yeast; Scc1, cohesin subunit, budding yeast; Scc3, cohesin subunit, budding yeast; also called cohesin complex; source: purified as previously described (Minamino et al. 2018): IgG agarose, 3C protease cleavage; copies: + + +
Experiment: SEC; Superose 6 Increase 3.2/300; 25 mM HEPES-KOH pH 7.6, 100 mM sodium acetate, 0.5 mM TCEP, 2 mM EDTA; proteins at the same molarity incubated together or separately at 30 °C for 5 min; fractions analysed by immunoblotting
Details: both partners purified

T1 sequence (P32908 whole entry, chain 1 of 4): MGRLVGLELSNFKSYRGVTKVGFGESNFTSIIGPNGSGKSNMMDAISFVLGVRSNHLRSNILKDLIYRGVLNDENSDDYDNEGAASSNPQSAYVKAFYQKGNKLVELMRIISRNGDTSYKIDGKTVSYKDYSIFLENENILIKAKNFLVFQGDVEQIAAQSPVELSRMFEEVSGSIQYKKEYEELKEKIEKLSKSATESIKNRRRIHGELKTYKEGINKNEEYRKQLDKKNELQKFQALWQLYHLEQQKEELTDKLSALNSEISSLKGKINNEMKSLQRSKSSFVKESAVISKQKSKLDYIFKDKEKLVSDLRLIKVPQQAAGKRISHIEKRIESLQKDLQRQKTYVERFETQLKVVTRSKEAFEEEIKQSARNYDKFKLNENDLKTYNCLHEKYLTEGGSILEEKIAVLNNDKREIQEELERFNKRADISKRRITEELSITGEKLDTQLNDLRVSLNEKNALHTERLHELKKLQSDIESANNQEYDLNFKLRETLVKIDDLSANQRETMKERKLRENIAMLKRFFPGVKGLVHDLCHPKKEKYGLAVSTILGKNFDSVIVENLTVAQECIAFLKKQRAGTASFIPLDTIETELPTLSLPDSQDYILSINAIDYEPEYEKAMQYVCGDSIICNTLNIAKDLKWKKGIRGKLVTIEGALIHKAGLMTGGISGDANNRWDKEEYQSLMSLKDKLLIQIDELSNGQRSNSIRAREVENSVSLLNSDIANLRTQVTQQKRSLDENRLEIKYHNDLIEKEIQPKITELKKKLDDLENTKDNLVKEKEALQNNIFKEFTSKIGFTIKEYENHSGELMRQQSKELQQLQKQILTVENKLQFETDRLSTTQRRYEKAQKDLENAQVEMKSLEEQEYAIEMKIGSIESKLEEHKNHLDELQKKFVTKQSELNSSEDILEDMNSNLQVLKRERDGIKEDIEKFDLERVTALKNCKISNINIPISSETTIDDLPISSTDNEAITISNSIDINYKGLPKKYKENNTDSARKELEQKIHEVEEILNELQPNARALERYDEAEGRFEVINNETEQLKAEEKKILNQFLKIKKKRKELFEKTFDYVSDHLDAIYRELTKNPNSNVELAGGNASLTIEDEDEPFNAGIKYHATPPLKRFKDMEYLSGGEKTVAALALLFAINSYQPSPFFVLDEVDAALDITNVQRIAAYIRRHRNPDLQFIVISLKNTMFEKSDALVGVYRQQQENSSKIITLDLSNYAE
T1 sequence (P47037 whole entry, chain 2 of 4): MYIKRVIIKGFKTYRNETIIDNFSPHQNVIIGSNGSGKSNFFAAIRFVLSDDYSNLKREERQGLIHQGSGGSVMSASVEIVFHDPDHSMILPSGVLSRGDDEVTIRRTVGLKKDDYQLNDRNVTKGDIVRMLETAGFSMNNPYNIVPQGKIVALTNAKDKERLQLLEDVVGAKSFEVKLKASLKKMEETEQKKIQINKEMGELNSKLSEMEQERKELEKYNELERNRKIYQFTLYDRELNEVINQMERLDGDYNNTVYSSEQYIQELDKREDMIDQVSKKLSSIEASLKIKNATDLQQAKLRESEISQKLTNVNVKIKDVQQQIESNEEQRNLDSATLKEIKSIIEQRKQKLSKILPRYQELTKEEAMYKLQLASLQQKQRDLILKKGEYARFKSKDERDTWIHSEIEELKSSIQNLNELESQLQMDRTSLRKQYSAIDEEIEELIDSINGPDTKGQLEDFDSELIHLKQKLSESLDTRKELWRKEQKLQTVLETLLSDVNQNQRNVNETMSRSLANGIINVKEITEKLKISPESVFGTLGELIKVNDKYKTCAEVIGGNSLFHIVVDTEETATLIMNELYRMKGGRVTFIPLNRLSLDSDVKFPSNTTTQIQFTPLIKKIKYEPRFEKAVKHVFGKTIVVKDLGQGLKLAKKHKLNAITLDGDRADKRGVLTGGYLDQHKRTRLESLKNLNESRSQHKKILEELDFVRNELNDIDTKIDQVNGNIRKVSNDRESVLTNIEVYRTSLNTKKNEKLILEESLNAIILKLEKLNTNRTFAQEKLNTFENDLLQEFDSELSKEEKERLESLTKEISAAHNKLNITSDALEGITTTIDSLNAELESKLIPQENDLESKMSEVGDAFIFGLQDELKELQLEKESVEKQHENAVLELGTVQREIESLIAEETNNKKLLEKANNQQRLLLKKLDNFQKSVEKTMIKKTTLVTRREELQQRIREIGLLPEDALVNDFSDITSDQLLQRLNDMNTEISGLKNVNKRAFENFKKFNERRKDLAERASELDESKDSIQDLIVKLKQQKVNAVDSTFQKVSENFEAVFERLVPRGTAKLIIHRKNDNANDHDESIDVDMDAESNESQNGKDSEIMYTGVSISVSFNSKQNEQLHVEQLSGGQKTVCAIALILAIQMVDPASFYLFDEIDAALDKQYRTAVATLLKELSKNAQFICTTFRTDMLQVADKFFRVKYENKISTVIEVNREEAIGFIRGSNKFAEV
T1 sequence (Q12158 whole entry, chain 3 of 4): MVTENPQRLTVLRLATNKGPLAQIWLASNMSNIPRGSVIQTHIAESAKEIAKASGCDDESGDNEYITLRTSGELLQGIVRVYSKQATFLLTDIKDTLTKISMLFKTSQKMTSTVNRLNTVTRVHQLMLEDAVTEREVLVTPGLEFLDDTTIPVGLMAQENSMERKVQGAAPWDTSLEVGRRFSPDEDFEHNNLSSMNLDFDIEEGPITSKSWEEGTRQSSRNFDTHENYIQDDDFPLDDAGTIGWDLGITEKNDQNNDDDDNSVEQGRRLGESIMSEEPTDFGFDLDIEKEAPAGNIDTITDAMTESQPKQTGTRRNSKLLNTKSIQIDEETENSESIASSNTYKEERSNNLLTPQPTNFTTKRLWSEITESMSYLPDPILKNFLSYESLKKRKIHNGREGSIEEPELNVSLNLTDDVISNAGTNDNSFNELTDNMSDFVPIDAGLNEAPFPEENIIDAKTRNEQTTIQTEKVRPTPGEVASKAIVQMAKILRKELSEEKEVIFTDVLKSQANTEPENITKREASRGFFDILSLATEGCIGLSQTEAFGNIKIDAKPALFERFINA
T1 sequence (P40541 whole entry, chain 4 of 4): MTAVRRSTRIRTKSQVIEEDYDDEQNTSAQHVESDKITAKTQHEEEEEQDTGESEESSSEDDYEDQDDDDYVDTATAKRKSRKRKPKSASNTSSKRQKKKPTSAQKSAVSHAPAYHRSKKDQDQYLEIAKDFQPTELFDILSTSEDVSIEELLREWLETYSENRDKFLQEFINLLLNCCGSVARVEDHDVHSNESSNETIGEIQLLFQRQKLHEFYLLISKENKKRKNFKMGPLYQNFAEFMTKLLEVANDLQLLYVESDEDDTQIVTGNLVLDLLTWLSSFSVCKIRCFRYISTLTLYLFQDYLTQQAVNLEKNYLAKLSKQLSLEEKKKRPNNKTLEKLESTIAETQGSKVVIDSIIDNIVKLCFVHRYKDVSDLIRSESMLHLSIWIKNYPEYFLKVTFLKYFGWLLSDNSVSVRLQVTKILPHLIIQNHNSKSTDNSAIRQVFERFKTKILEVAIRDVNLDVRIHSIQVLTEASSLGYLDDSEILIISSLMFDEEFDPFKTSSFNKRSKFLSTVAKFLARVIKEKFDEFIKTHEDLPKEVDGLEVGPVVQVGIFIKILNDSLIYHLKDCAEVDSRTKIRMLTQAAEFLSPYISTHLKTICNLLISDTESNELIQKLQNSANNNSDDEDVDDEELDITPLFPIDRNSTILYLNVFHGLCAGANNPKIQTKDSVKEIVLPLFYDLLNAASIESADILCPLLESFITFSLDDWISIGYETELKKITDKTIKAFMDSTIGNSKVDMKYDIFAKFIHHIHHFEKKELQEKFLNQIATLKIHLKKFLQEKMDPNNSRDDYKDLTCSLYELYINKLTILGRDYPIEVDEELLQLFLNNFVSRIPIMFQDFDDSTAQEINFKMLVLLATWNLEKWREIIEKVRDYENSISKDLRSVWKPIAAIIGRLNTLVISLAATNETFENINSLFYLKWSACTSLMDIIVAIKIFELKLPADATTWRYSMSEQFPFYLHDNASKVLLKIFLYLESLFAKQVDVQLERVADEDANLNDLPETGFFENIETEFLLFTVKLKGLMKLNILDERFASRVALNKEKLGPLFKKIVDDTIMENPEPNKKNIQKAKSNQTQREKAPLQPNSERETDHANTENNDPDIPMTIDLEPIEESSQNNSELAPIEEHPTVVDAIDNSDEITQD

B1: Mrc1 (natural protein, S. cerevisiae (budding yeast), UniProt P25588 1-1096, looked up)
chain: MDDALHALSSLTAKKRTTTYKKVAVPILDENDNTNGNGPNDIDNPPELTGNGFLFANATLNRVKNRLEGKKAPEQNHNNGKDRSENSLPTQLISNLYDGGEELEKSEVKDNSYSEKNVSSSFTQTQRIPVSIQQDKVFNVPIHSVNDGKPTQLIKEDGLVNETSQALKTPLTTGRPGATQRIDSSGATSQTQPIKSIEPQSQIITTSSNHSNALSPKIPIIPTELIGTSPLFQSIQNRGPDTQMDVPPQTAHDEDKTQAIGIPQATHQEQKTQIDTVAQTLQDEVPHTLKIREIQSELASEDSKREKARNVEYKKPQKPIPTKKFFSKESFLADFDDSSSNEDDDIKLENAHPKPVQNDDELHENKSVELNLTDETRINEKRVPLLSSYANNLKREIDSSKCITLDLDSDSDEYGDDDMDSIKLSKDESVLPISQLSKATILNLKARLSKQNQKLSQRPNKSKDPKVDHNVLLNTLRKASRKQILDHQKEVIETKGLKLEDMAKEKEIVENLLEQEILRNKRIRQKEKRREKLEENDFQLNAHDSGSDSGSESSGFALSGNEIADYESSGSENDNRRESDSEKEDDEIILKQKKSHHVKHIINESDSDTEVEAKPKEKADESLPKRIAINLGHYGDNIGEDTDKFQETNVLDTQNIEEVMAERNTIENEVKDDVYVNEEADEAIRRQLIDKEKLQLKQKEKEHEAKIKELKKRGVTNFFEMEAEESEDEWHGIGGADGEGSDDYDSDLEKMIDDYSKNNFNPHEIREMLAAENKEMDIKMINKILYDIKNGGFRNKRAKNSLELELSDDDEDDVLQQYRLKRRELMRKRRLEIGDDAKLVKNPKSSAFFESMVEDIIEYKNPFGAEEEYNLDITSTATDLDTQDNSINVGDNTGNNEQKPVDQKNKKVIISEDFVQKSLSFLKSNNYEDFETDKELSRIQHGNDEAIEDLYTLKQNSSIKSFTNSQTDSTTSKTVNTIIDLEKRPEDEDEVENGDTSLVGVFKHPSIIKSFASRTDINDKFKEGNKTVKILKSYKTVGSSKASITYMGKTRKLIAPKRKTEGSHRYHHDHHNKKMKMKTKTKSNKLFESGQDSFDN
notes: Mrc1, budding yeast; also called Flag-tagged Mrc1; source: purified as previously described (Yeeles et al. 2017)
B1: binds.
